From publication PMC3229514, “Both hMutSα and hMutSß DNA Mismatch Repair Complexes Participate in 5-Fluorouracil Cytotoxicity” come the findings set out here.

The target in one data set is hMutSβ (hMSH2-hMSH3) (human, UniProt P43246;P20585 1-934;1-1137). The data set is described as follows: SPR (IAsys); 10 mM Mg2+; EMSA: 100 nM hMutSβ, 20 mM HEPES pH 7.6, 1 mM EDTA, 1 mM DTT, 10% glycerol, 100 µg poly(dI-dC), 10 µl; IAsys: 100 nM protein, 25 mM Tris-Cl pH 7.8, 20 mM NaCl. Particulars: protein: recombinant, copies: 1;1, label: 5'-32P on S5 (EMSA), 5'-biotin on S5 (IAsys).

The target of the next data set is hMutSα (human, UniProt P43246;P52701 1-934;1-1360). The data set is described as above. Particulars: protein: recombinant; copies: 1;1; label: 5'-32P on S5 (EMSA); 5'-biotin on S5 (IAsys); blunt; 5FdU opposite A by the printed complement. Background: A gel shift assay detects complexes by their altered migration in electrophoresis.

B1: 5-FU-containing 38-mer duplex (dsDNA)
DNA 1: TTTCTGACTTGGATACCAUCTATCTATCTATAAAATAT
DNA 2: ATATTTTATAGATAGATAGATGGTATCCAAGTCAGAAA
modifications: 5-fluoro-2'-deoxyuridine at position 19 of strand 1 (written U)
On to B1, for which the binding signal is approximately 1.3 fold vs complementary DNA with hMutSβ (hMSH2-hMSH3) (blunt, 5FdU opposite A by the printed complement) and ~2 fold vs hMutSβ on same DNA with hMutSα.

B2: AA insertion/deletion loop duplex (dsDNA)
DNA 1: TTTCTGACTTGGATACCATCTATCTATCTATAAAAAATAT
DNA 2: B1 DNA 2
For the molecule B2, the binding signal with hMutSβ (hMSH2-hMSH3) (blunt ends, 2-nt AA loop in strand 1 (40 nt vs 38 nt)) is approximately 1.8 fold vs complementary DNA.
